# Data as given in article PMC9482650, “Quantitative fragmentomics allow affinity mapping of interactomes” (Nature Communications, 2022).
# T1: APBA2_2, Q99767
# T1 sequence (Q99767 654-744, limits assumed, looked up): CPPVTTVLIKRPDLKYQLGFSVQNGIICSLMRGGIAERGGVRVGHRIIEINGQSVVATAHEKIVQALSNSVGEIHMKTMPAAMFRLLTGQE
# T2: SHANK1, Q9Y566
# T2 sequence (Q9Y566 658-767, limits assumed, looked up): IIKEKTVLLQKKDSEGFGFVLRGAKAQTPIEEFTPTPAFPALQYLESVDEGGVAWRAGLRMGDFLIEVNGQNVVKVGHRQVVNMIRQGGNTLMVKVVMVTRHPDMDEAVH
# T3: PTPN13_1, Q12923
# T3 sequence (Q12923 1088-1188, limits assumed, looked up): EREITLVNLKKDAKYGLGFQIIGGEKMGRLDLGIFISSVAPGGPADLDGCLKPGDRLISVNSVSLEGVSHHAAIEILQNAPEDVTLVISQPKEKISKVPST
# T4: HTRA4, P83105
# T4 sequence (P83105 378-476, limits assumed, looked up): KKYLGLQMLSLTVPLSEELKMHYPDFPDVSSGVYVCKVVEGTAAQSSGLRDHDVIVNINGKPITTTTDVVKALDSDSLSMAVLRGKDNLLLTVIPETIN
# T5: RAPGEF6, Q8TEU7
# T5 sequence (Q8TEU7 525-625, limits assumed, looked up): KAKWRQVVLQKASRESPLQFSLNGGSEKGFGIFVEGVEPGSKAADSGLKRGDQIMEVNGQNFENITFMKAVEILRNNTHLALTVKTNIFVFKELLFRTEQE
# T6: APBA3_1, O96018
# T6 sequence (O96018 389-490, limits assumed, looked up): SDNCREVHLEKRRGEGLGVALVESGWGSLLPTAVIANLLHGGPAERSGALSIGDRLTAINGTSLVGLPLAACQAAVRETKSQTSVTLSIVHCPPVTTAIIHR
# T7: LNX2_2, Q8N448
# T7 sequence (Q8N448 334-432, limits assumed, looked up): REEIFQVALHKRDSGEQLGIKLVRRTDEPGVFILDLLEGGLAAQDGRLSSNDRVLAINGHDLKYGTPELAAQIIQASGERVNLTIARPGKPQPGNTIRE
# T8: NHERF3_4, Q5T2W1
# T8 sequence (Q5T2W1 373-468, limits assumed, looked up): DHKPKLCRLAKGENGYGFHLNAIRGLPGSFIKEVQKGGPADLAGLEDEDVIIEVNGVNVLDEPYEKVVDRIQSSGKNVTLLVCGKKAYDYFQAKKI
# T9: MPDZ_12, O75970
# T9 sequence (O75970 1857-1958, limits assumed, looked up): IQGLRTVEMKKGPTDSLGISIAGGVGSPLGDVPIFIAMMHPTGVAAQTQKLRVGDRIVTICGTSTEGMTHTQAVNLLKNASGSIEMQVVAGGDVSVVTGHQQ
# T10: PDZD7_3, Q9H5P4
# T10 sequence (Q9H5P4 857-944, limits assumed, looked up): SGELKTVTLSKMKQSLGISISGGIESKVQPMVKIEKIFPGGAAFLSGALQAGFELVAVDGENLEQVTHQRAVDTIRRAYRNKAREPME
# T11: GRIP1_5, Q9Y3R0
# T11 sequence (Q9Y3R0 568-668, limits assumed, looked up): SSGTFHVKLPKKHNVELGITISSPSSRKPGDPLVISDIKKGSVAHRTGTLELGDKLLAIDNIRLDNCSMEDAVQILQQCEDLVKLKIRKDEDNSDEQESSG
# Molecular target: LIMK2, P53671
# Sequence (P53671 143-248): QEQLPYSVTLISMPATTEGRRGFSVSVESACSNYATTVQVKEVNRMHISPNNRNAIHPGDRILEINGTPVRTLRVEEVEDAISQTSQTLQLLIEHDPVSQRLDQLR
# Assay: holdup assay
# Design: key: below the threshold = too weak to quantify, mostly under pKd 3.1 to 4
# Conditions: plain residues with an end cap or a label only (N-terminal biotin on a linker: ado-ado)
row,Binder,pKd
1,"AAVENKVTDL [PLXNB1, O43157]",below the threshold
2,"TRKRSGEAAV [PFKM, P08237]",below the threshold

# Molecular target: LNX1_1, Q8TBB1
# Sequence (Q8TBB1 261-371): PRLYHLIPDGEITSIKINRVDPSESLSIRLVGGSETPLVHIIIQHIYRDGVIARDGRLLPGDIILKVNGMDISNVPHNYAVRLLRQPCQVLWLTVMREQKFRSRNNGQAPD
# Assay: holdup assay
# Design: key: below the threshold = too weak to quantify, mostly under pKd 3.1 to 4
# Conditions: plain residues with an end cap or a label only (N-terminal biotin on a linker: ado-ado)
row,Binder,pKd
1,"AAVENKVTDL [PLXNB1, O43157]",4.19
2,"TRKRSGEAAV [PFKM, P08237]",below the threshold

# Molecular target: MAGI2_5, Q86UL8
# Sequence (Q86UL8 915-1017): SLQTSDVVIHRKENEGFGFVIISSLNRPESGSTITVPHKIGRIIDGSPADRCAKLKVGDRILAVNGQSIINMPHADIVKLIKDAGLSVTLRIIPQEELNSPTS
# Assay: holdup assay
# Design: key: below the threshold = too weak to quantify, mostly under pKd 3.1 to 4
# Conditions: plain residues with an end cap or a label only (N-terminal biotin on a linker: ado-ado)
row,Binder,pKd
1,"AAVENKVTDL [PLXNB1, O43157]",below the threshold
2,"TRKRSGEAAV [PFKM, P08237]",below the threshold

# Molecular target: T1, APBA2_2, Q99767
# Assay: holdup assay
# Design: key: below the threshold = too weak to quantify, mostly under pKd 3.1 to 4
# Conditions: plain residues with an end cap or a label only (N-terminal biotin on a linker: ado-ado)
row,Binder,pKd
1,"AAVENKVTDL [PLXNB1, O43157]",below the threshold
2,"TRKRSGEAAV [PFKM, P08237]",below the threshold

# Molecular target: T2, SHANK1, Q9Y566
# Assay: holdup assay
# Design: key: below the threshold = too weak to quantify, mostly under pKd 3.1 to 4
# Conditions: plain residues with an end cap or a label only (N-terminal biotin on a linker: ado-ado)
row,Binder,pKd
1,"AAVENKVTDL [PLXNB1, O43157]",below the threshold
2,"TRKRSGEAAV [PFKM, P08237]",below the threshold

# Molecular target: PTPN3, P26045
# Sequence (P26045 505-587): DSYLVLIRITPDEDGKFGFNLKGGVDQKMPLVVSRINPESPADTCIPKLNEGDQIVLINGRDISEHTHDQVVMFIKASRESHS
# Assay: holdup assay
# Design: key: below the threshold = too weak to quantify, mostly under pKd 3.1 to 4
# Conditions: plain residues with an end cap or a label only (N-terminal biotin on a linker: ado-ado)
row,Binder,pKd
1,"AAVENKVTDL [PLXNB1, O43157]",4.68
2,"TRKRSGEAAV [PFKM, P08237]",4.15

# Molecular target: T3, PTPN13_1, Q12923
# Assay: holdup assay
# Design: key: below the threshold = too weak to quantify, mostly under pKd 3.1 to 4
# Conditions: plain residues with an end cap or a label only (N-terminal biotin on a linker: ado-ado)
row,Binder,pKd
1,"AAVENKVTDL [PLXNB1, O43157]",below the threshold
2,"TRKRSGEAAV [PFKM, P08237]",below the threshold

# Molecular target: DLG1_1, Q12959
# Assay: holdup assay
# Design: key: below the threshold = too weak to quantify, mostly under pKd 3.1 to 4
# Conditions: plain residues with an end cap or a label only (N-terminal biotin on a linker: ado-ado)
row,Binder,pKd
1,"AAVENKVTDL [PLXNB1, O43157]",3.7
2,"TRKRSGEAAV [PFKM, P08237]",below the threshold

# Molecular target: DLG4_3, P78352
# Sequence (P78352 306-403): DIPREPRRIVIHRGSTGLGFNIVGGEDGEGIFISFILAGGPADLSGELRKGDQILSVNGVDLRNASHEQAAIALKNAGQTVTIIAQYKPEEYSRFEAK
# Assay: holdup assay
# Design: key: below the threshold = too weak to quantify, mostly under pKd 3.1 to 4
# Conditions: plain residues with an end cap or a label only (N-terminal biotin on a linker: ado-ado)
row,Binder,pKd
1,"AAVENKVTDL [PLXNB1, O43157]",below the threshold
2,"TRKRSGEAAV [PFKM, P08237]",below the threshold

# Molecular target: T4, HTRA4, P83105
# Assay: holdup assay
# Design: key: below the threshold = too weak to quantify, mostly under pKd 3.1 to 4
# Conditions: plain residues with an end cap or a label only (N-terminal biotin on a linker: ado-ado)
row,Binder,pKd
1,"AAVENKVTDL [PLXNB1, O43157]",below the threshold
2,"TRKRSGEAAV [PFKM, P08237]",below the threshold

# Molecular target: T5, RAPGEF6, Q8TEU7
# Assay: holdup assay
# Design: key: below the threshold = too weak to quantify, mostly under pKd 3.1 to 4
# Conditions: plain residues with an end cap or a label only (N-terminal biotin on a linker: ado-ado)
row,Binder,pKd
1,"AAVENKVTDL [PLXNB1, O43157]",below the threshold
2,"TRKRSGEAAV [PFKM, P08237]",below the threshold

# Molecular target: DLG4_2, P78352
# Sequence (P78352 155-259): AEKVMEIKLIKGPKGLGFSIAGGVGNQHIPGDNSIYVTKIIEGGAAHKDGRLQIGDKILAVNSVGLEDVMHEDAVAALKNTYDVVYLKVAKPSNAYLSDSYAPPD
# Assay: holdup assay
# Design: key: below the threshold = too weak to quantify, mostly under pKd 3.1 to 4
# Conditions: plain residues with an end cap or a label only (N-terminal biotin on a linker: ado-ado)
row,Binder,pKd
1,"AAVENKVTDL [PLXNB1, O43157]",4.2
2,"TRKRSGEAAV [PFKM, P08237]",3.93

# Molecular target: Inadl_1, Q8NI35
# Sequence (Q8NI35 113-229): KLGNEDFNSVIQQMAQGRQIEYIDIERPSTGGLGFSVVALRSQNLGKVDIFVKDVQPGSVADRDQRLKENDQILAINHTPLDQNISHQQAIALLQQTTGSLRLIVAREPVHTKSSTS
# Assay: holdup assay
# Design: key: below the threshold = too weak to quantify, mostly under pKd 3.1 to 4
# Conditions: plain residues with an end cap or a label only (N-terminal biotin on a linker: ado-ado)
row,Binder,pKd
1,"AAVENKVTDL [PLXNB1, O43157]",below the threshold
2,"TRKRSGEAAV [PFKM, P08237]",below the threshold

# Molecular target: T6, APBA3_1, O96018
# Assay: holdup assay
# Design: key: below the threshold = too weak to quantify, mostly under pKd 3.1 to 4
# Conditions: plain residues with an end cap or a label only (N-terminal biotin on a linker: ado-ado)
row,Binder,pKd
1,"AAVENKVTDL [PLXNB1, O43157]",below the threshold
2,"TRKRSGEAAV [PFKM, P08237]",below the threshold

# Molecular target: FRMPD4, Q14CM0
# Sequence (Q14CM0 67-160): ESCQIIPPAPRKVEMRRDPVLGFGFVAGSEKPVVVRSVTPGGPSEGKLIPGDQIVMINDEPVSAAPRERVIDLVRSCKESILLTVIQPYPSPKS
# Assay: holdup assay
# Design: key: below the threshold = too weak to quantify, mostly under pKd 3.1 to 4
# Conditions: plain residues with an end cap or a label only (N-terminal biotin on a linker: ado-ado)
row,Binder,pKd
1,"AAVENKVTDL [PLXNB1, O43157]",3.68
2,"TRKRSGEAAV [PFKM, P08237]",3.58

# Molecular target: DLG2_2, Q15700
# Sequence (Q15700 189-283): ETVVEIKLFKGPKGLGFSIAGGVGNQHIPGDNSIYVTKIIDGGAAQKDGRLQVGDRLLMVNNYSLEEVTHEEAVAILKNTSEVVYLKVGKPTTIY
# Assay: holdup assay
# Design: key: below the threshold = too weak to quantify, mostly under pKd 3.1 to 4
# Conditions: plain residues with an end cap or a label only (N-terminal biotin on a linker: ado-ado)
row,Binder,pKd
1,"AAVENKVTDL [PLXNB1, O43157]",3.95
2,"TRKRSGEAAV [PFKM, P08237]",3.59

# Molecular target: Inadl_3, Q8NI35
# Sequence (Q8NI35 359-469): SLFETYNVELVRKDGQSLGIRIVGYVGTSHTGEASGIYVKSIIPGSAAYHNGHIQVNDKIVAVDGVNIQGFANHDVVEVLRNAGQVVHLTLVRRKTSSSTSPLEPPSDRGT
# Assay: holdup assay
# Design: key: below the threshold = too weak to quantify, mostly under pKd 3.1 to 4
# Conditions: plain residues with an end cap or a label only (N-terminal biotin on a linker: ado-ado)
row,Binder,pKd
1,"AAVENKVTDL [PLXNB1, O43157]",below the threshold
2,"TRKRSGEAAV [PFKM, P08237]",below the threshold

# Molecular target: Inadl_9, Q8NI35
# Sequence (Q8NI35 1530-1615): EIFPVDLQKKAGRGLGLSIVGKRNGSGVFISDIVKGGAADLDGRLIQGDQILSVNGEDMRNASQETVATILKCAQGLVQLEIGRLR
# Assay: holdup assay
# Design: key: below the threshold = too weak to quantify, mostly under pKd 3.1 to 4
# Conditions: plain residues with an end cap or a label only (N-terminal biotin on a linker: ado-ado)
row,Binder,pKd
1,"AAVENKVTDL [PLXNB1, O43157]",below the threshold
2,"TRKRSGEAAV [PFKM, P08237]",below the threshold

# Molecular target: T7, LNX2_2, Q8N448
# Assay: holdup assay
# Design: key: below the threshold = too weak to quantify, mostly under pKd 3.1 to 4
# Conditions: plain residues with an end cap or a label only (N-terminal biotin on a linker: ado-ado)
row,Binder,pKd
1,"AAVENKVTDL [PLXNB1, O43157]",below the threshold
2,"TRKRSGEAAV [PFKM, P08237]",3.53

# Molecular target: T8, NHERF3_4, Q5T2W1
# Assay: holdup assay
# Design: key: below the threshold = too weak to quantify, mostly under pKd 3.1 to 4
# Conditions: plain residues with an end cap or a label only (N-terminal biotin on a linker: ado-ado)
row,Binder,pKd
1,"AAVENKVTDL [PLXNB1, O43157]",3.47
2,"TRKRSGEAAV [PFKM, P08237]",below the threshold

# Molecular target: PDZRN4_1, Q6ZMN7
# Sequence (Q6ZMN7 213-318): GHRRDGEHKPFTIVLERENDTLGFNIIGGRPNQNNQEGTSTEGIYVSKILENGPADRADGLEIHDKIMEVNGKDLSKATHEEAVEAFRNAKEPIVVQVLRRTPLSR
# Assay: holdup assay
# Design: key: below the threshold = too weak to quantify, mostly under pKd 3.1 to 4
# Conditions: plain residues with an end cap or a label only (N-terminal biotin on a linker: ado-ado)
row,Binder,pKd
1,"AAVENKVTDL [PLXNB1, O43157]",below the threshold
2,"TRKRSGEAAV [PFKM, P08237]",below the threshold

# Molecular target: MAGI2_6, Q86UL8
# Sequence (Q86UL8 1141-1229): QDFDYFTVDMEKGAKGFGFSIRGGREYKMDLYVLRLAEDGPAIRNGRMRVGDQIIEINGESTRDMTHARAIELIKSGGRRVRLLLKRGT
# Assay: holdup assay
# Design: key: below the threshold = too weak to quantify, mostly under pKd 3.1 to 4
# Conditions: plain residues with an end cap or a label only (N-terminal biotin on a linker: ado-ado)
row,Binder,pKd
1,"AAVENKVTDL [PLXNB1, O43157]",4.99
2,"TRKRSGEAAV [PFKM, P08237]",below the threshold

# Molecular target: LNX1_2, Q8TBB1
# Sequence (Q8TBB1 371-470): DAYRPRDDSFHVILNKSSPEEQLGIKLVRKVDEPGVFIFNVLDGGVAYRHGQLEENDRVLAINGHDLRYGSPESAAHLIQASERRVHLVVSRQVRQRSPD
# Assay: holdup assay
# Design: key: below the threshold = too weak to quantify, mostly under pKd 3.1 to 4
# Conditions: plain residues with an end cap or a label only (N-terminal biotin on a linker: ado-ado)
row,Binder,pKd
1,"AAVENKVTDL [PLXNB1, O43157]",below the threshold
2,"TRKRSGEAAV [PFKM, P08237]",below the threshold

# Molecular target: T9, MPDZ_12, O75970
# Assay: holdup assay
# Design: key: below the threshold = too weak to quantify, mostly under pKd 3.1 to 4
# Conditions: plain residues with an end cap or a label only (N-terminal biotin on a linker: ado-ado)
row,Binder,pKd
1,"AAVENKVTDL [PLXNB1, O43157]",below the threshold
2,"TRKRSGEAAV [PFKM, P08237]",below the threshold

# Molecular target: T10, PDZD7_3, Q9H5P4
# Assay: holdup assay
# Design: key: below the threshold = too weak to quantify, mostly under pKd 3.1 to 4
# Conditions: plain residues with an end cap or a label only (N-terminal biotin on a linker: ado-ado)
row,Binder,pKd
1,"AAVENKVTDL [PLXNB1, O43157]",4.91
2,"TRKRSGEAAV [PFKM, P08237]",3.88

# Molecular target: AHNAK1, Q09666
# Sequence (Q09666 4-100): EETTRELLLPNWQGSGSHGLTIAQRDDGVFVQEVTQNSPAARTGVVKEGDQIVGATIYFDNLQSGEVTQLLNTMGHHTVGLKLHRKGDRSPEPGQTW
# Assay: holdup assay
# Design: key: below the threshold = too weak to quantify, mostly under pKd 3.1 to 4
# Conditions: plain residues with an end cap or a label only (N-terminal biotin on a linker: ado-ado)
row,Binder,pKd
1,"AAVENKVTDL [PLXNB1, O43157]",below the threshold
2,"TRKRSGEAAV [PFKM, P08237]",below the threshold

# Molecular target: T11, GRIP1_5, Q9Y3R0
# Assay: holdup assay
# Design: key: below the threshold = too weak to quantify, mostly under pKd 3.1 to 4
# Conditions: plain residues with an end cap or a label only (N-terminal biotin on a linker: ado-ado)
row,Binder,pKd
1,"AAVENKVTDL [PLXNB1, O43157]",below the threshold
2,"TRKRSGEAAV [PFKM, P08237]",below the threshold
